This series can be described thus: label from the status in PepcDB records.
“MMDYLITQNGGMVFAVLAMATATIFSGIGSAKGVGMTGEAAAALTTSQPEKFGQALILQLLPGTQGLYGFVIAFLIFINLGSDMSVVQGLNFLGASLPIAFTGLFSGIAQGKVAAAGIQILAKKPEHATKGIIFAAMVETYAILGFVISFLLVLNA”: the protein production result is “not failed”.

With “MGHHHHHHSHSPSPSSRVTVSRASSSRSVRTTRGKRKRVDVEESEASSSVSISHSASATGNVCIEEIDVDGKFIRLKNTSEQDQPMGGWEMIRKIGDTSVSYKYTSRYVLKAGQTVTIWAANAGVTASPPTDLIWKNQNSWGTGEDVKVILKNSQGEEVAQRSTVFKTTIPEEE”, the protein production result was “not failed”. Turning to “MQAVALENDVIRRFASGQMFPMAKLVLETAFQPIVEATTGTIFGYESLMRGHDRLGFSSPLALLDQAAADGELKAFEQMLASRALAKFSTLPDFSSATLFLNLDVRLIPHGDVILDKLVGHLARAGIPASSICFELSERFDNTSVPEFTSLIARMRKEGFKLAIDDFGAGHGEMKLLCDFPLDYLKIDRHFISGIDHLPRKQHLVRNIVNIAHVLGVRVIAEGIETEAEFLSCREFGVDLVQGWLIAKPTVFTSELPESFPHLNRVGVARRNSQTLDEILIRREIERLPTVFEHDSVDSVFELFRRNPQQAFFPVLNANGEPRGVINEYHLKEYIYRPFGRDLLKNKIYERTISHFVDPAPIVGLDADADQLMNMFASMGGMGGSACIILTENMRYAGIVSAASLIKVINEKQLKMAQDQNPLTALPGNRAIGGFIADSCSDGDETRFFCYCDFDNFKPFNDKYGFNAGDHAITLFSALMRRYFFAGDCFLGHIGGDDFFIGVRDWSVEELMEILERLLSDFHDDVAGLYSDEDRAAGCMKGQDRNGNERDFALLRCSIGVLTLPKGSIIANPERIGSEIASVKAAAKENEGGLVVRVFGEANLEHHHHHH”, the protein production result is “failed”. For the sequence “MLRAIYRALWWLVAPLAVLRLVWRSRKERGYREHIGERFGFGPGRALARRIDEATPVVWVHAVSVGETRAAQPLVDALLRARPDVHVLLTHMTPSGRATGEQIFGERVSRCYLPYDLPHAVRRFLRAWRPSLGLVMETEVWPTLIDECRRADVPLVLTNARMSARSFGRAAKFGAAAREVFGGFSRVLAQSPADAERLTALGARNVAVLGNLKFDMTTPPELAARGRAWRAAIGERPVWVAASTRDGEEALVLDAFAALRTPDALLILVPRHPQRFAEVAALVERRGLRHARRTEWAADAAAAAAGGPAAPALPPDVAVLLGDSMGELGAYYAAADVAFIGGSLLPLGGQNLIEACAVGVPVLIGPHVFNFTQATADAVTAGACAQVQDPADLARTLDALFADHARRAAMGAAGAAFAARHRGATARTVDVLNALLPPPRVASSANDEGEAGGLDAGTAID”, the protein production result was “failed”.

Consider “MAWRVGIAPLMTPSTPLWPGREPVYRSAALSSMEPGRPRGQQGTELGMPAGAPLRRGIGGGPGLDVRRRDLGAVAAAHQHAILGPAQVGDAHGEPDPDRGQRDGEGERGDVGEHAVAEIVRLGARLLVARQVERLGRAAHRLHGAVAPVDRRGGGGARPELEHPVLLIRAYGPLGFHGARITPKQRFLIAYVVNALQKIFSTRTCIALLHDLFAKARDSGRHAGVRMRGVALQNSHGTCRARSREHRLVISLCAPNAFCRRKAHGIIMEPGPPVATNNVRGSSTMTTNAREPRVHPVPILSLRPTQMTVGMREVKEKRKRWREHDSKKQADLLGKHMIPVVYGPDKRYYVIDHHHLGRALHDEGVKEVLVTVVGDLRMVEREAFWGVMDNKRWVYPYDSKGERRPFRDLPKSVADLRDDPFRSLAGELRRLGGFAKDTTPFSEFLWADYLRRKLSRKAVDANFDKALEKALSAAKSKDAIYLPGWCGPADDD”, for which the protein production result is on record as “failed”. In the case of “MTGRDLMLITGISPIILRFLFGGTAVVASRLVARSFGGRLGGVFAAFPAVYLAAVAGLSMEYEGSELLSVSEQLSRGALVGMSADICCALAASYLILKYGWKTGLSLSLLFWAVLAPVIYFTWF”, the protein production entry is on record as “failed”.

With “KAPLDEIADDSFWSDETLVKYYVNDLYSEISVDGLQLQENRSDNSVSAQRDKYRASWFKFNYDMVSASDPQDDDVWEDYYVKVRKCNRFFERIGTSTIEESEKSRLTGEVHFLRAMFYFEMVKRYGGVILLDKVLTMEDNWEIPRSSEKECYDFILEDLKKATEMLPASYGSREKGRATKGAAYALKSRVELYDKRYEDVIKSCAEVYKLGYELVDGTTPEKYRSIWWTTNKDNKEIIFDVQYKSPDVYNNMMVCNMVTYINDKYGDRGWGGLGPTQELIDAFEMADGTPATQYSQAPADQVFDINTCGIYEGREPRFYANIVFHGSQIFFNADKGAVTVDRYLMDTPDKGDGSLTGYNVWKWIDYDNYNYPYAGAGSPDFSTNWIILRYAEIYLNDAEARLETGDVEGARKAVNMIRQRVGLPDLTESDPEKLRELIRKERRIEFAFEEQRFYDVRRWKIGPETQTTLHGVRFVSPTEFKVTKTDIRTWNDRLYLTPVPHDEIVRSSVLKQNLGY”, the protein production result is recorded as “not failed”. The same measure for “MKKPNHSGSGQIRIIGGQWRGRKLPVPDSPGLRPTTDRVRETLFNWLAPVIVDAQCLDCFAGSGALGLEALSRYAAGATLIEMDRAVSQQLIKNLATLKAGNARVVNSNAMSFLAQKGTPHNIVFVDPPFRRGLLEETINLLEDNGWLADEALIYVESEVENGLPTVPANWSLHREKVAGQVAYRLYQREAQGESDAD”: “not failed”; for “MSLKDFAGRTAFVTGGANGVGIGLVRQLLNQGCKVAIADIRQDSIDKALATLEAEGSGPEVMGVQLDVASREGFKMAADEVEARFGPVSILCNNAGVNLFQPIEESSYDDWDWLLGVNLHGVVNGVTTFVPRMVERVKAGEQKGGHVVNTASMAAFLAAGSPGIYNTTKFAVRGLSESLHYSLLKYEIGVSVLCPGLVKSYIYASDDIRPDALKGEVKPVDKTAVERLAGVHEFGMEPDVIGARVIEAMKANRLHIFSHPDHKEELREVFDEIIAEYQDYPKDPGYDQRVAFEKFRADSFAEARRQSRAADEGHHHHHH”: “not failed”; for “MVRDNGPGERLSIPPLSGLRKFRRTLSQKYDNHYCYLWMVSSALEYVRKFGIEKEPSRPFHAYAICPKDVPHRSPSIELSYISEVVWLNRIEDDLCYMNIRSLPVSPFSFSNIEKIGFQR”: “not failed”. As for “AERTIQLPKPDMNRAGLLMKALSERHSTREYASKALSNTDLSDLLWAANGINRSSEGKRTAPSAMNRQDIDIYVVLPQGTYLYDAKGHKLNLISEGDHRSAVAGGQAFVNNAPVSLVLVSDLSKLGDAKSNHVQLMGAMDAGIVSQNISLFCSAARLATVPRASMDLVRLKAALKLKDTQMPMMNHPVGYFK”, the protein production result is recorded as “not failed”. The same measure for “MAFSTDDTLWREFLQVWPLERLREMTLAEYTTAGDKDCFVYWLEFRLVDYGSIAGGSAFKFAIFSRKETGAREGDTSLAYDDRYGWYRRFGTSPEEAFQTIRGHVVAVAEAARDGRLDEIDNSPLGAAYRWKIAFHYQPLRNPSTPCVYVRKPLLHFLGLSAADTTTPQSELYQALARLRQADESIFVFSERLWKDWVADTPFVVKLSEGAIKHGYLPVNLISAPFPETMYGGKTPNEAADVAHFRTDTGLEFDTDLRVSSPGSARLRHRLGGYFEDIGAAAGDLITLTQDGDGTYLLSSKLAVHAIGPTASAATITARASVKEAAAVRPPLNQILFGPPGTGKTYEAIEKALEILDPSFLLQLGDDESNERRRALKRRYDELAKEGLVQFVTFHQSFSYENFVEGLSASSDPDTKQVRYEVEDGVFKELCESARTRLVRRSDDAPLELSGRRIWKLSLGDSITEGHIFEECMEKGLALMGFGNNADFSQCQSREDIQKMFAASGEPLSLGAYPITAIKTFVCQMKLGDLIVVSEGNLKFRAIGEITGDYQLLPRDSDTYSQARPVRWLRGYKPALPYGALMENRFSQMTVYELRAGSIDHDKFRELLKSECIATGADRPHVLIIDEINRGNVSRIFGELITLIEPSKRSGAAEALEVLLPYSKDPFSVPDNVYLIGTMNTADRSLAGLDIALRRRFDFVEMAPRPDKLTGVKVAEIDISAVLETMNRRIEVLLDREHRLGHAYFMSLENSNDLSRLSNIFRQQIIPLLQEYFFEDWQRIAWILNDHRKDERFRFIVPAPYSVDSLFGDTGQVAQDSKAWRMNEEAFHKPQSYLGIVGDGKV”: “failed”. For the sequence “MANRSHHNAGHRAMNALRKSGQKHSSESQLGSSEIGTTRHVYDVCDCLDTLAKLPDDSVQLIICDPPYNIMLADWDDHMDYIGWAKRWLAEAERVLSPTGSIAIFGGLQYQGEAGSGDLISIISHMRQNSKMLLANLIIWNYPNGMSAQRFFANRHEEIAWFAKTKKYFFDLDAVREPYDEETKAAYMKDKRLNPESVEKGRNPTNVWRMSRLNGNSLERVGHPTQKPAAVIERLVRALSHPGSTVLDFFAGSGVTARVAIQEGRNSICTDAAPVFKEYYQKQLTFLQDDGLIDKARSYEIVEGAANFGAALQRGDVAS”, the protein production result is reported as “not failed”.

Turning to “MKELSDVILDRIDAICDEADLLFEDEKSEEAIAKYNEALTLLPEPIEEYEPSAWLISSIGDVYFFDEEYEKALAQFEHAMGCIDSEDNPYLLLRAGQCHFELGQMQDAEDTMHEAYLIEGEEIFEEEDPKYWEFLKSKITIVDLEHHHHHH”, the protein production result was “not failed”. The same measure for “MDRTEQKSIIEGLLFVSGDEGIYPEQIAKVLEIEGNEVIDILEEMQKECEGAHRGLQIVQYAKVYRFATKKEHASYYQKLIEIPTAASLSQAALETLAIVAYRQPITRTEMEEIRGVKTDKALQTLVSHLLIKEMGRAEGPGRPILYGTTKEFLDTFGLKTLDDLPPLSEENEQMNEADLFFGSLQEISK”: “failed”; for “MNIKLYYVHDPMCSWCWGYKPTIEKLKQQLPGVIQFEYVVGGLAPDTNLPMPPEMQQKLEGIWKQIETQLGTKFNYDFWKLCTPVRSTYQSCRAVIAAGFQDSYEQMLEAIQHAYYLRAMPPHEEATHLQLAKEIGLNVQQFKNDMDGTLLEGVFQDQLSLAKSLGVNSYPSLVLQINDAYFPIEVDYLSTEPTLKLIRERIIENMSA”: “not failed”. With “VACKPKEKPSSATSLTDDALMDTVQRRTFNYFWDAAEPNSGLARERYHMDGEYPAGGPEIVTSGGSGFGIMAILAGIDRGYVSREEGLRRMEKIVGFLEKADRFKGAYPHWWNGETGHVQPFGQKDNGGDLVETAFLMQGLLAVHQYYAEGSAEEKKLAGRIDKLWREVDWNWYRHGGQNVLYWHWSPEYGWEMNFPVHGYNECLIMYILAAASPTHGVPAAVYHEGWAQNGAIVSPHKVEGIELHLRYQGGEAGPLFWAQYSFLGLDPVGLKDEYCPSYFNEMRNLTLVNREYCIRNPKHYKGYGPDCWGLTASYSVDGYAAHGPLERDDRGVISPTAALSSIVYTPDQSLQVMHHLYEMGDKVFGPYGFYDAFSETADWYPKRYLAIDQGPIAVMIENYRTGLLWKLFMSHPDVQNGLKKLGFNVKK” the entry was “not failed”; with “MPAIQSELDVNGEDFARNREAMLAAVAGFRELEQKVLDKAAEARPKFEKRGQLLPRERLALLLDPGAPFLELSSLAGYKLHDDKDGTQAGGGIIAGIGYIAGVRCLVSASNSAIKGGTISPTGLKKTLRLQQIAMENKLPVVTLTESGGANLNYAAEIFVEGARGFANQARISAMGIPQVTVVHGSSTAGGAYQPGLSDYVVVVRGKAKMFLAGPPLLKAATGEIASDEELGGAELHAQVAGTAEYLAENDADGVRLAREIVGMLPWNAQLPARPARSWREPLYPVEELLGVVPADPKKPYDVREIVARIADGSEFLDFKNEFDGQTVCGHLRIEGHACGLIGNNGPITPQGAAKAAQFIQLCEQSNTPLLFLHNTTGFMVGTESERQGVIKHGSKMIQAVANARVPKLTLVVGGSYGAGNYAMCGRGLDPRFIFAWPNSRTAVMGGAQAGKVLRIVTEEKHAKEGKEADPKMLEMLETVTAQKLDSQSTALYGTASLWDDGLVDPRDSRRLLGYLLDICAEAEARPLKGNSFGVAR”, “not failed”. Turning to “MLKRTLLACLALSCSFPSYSADYITENLSTYMRKGAGDQYKIAGTIQAGEKITVLDRKDRFVLIRDSRNREGWVLNNEISQTASPKELIPELQQQIQDLSSKLNKIDNDWQQRTAEMQRRSQQAEQQSSELLDENTQLKRKLEVLKNKNRDLETMQDAEKREIVIQWFIYGGSVLTVGLLLGLLIPFILPRRRRNNGWSLEHHHHHH”, the protein production result is “failed”.
